Data reported in US20150344570A1 (published 2015).

Legend:
[1] = biological target: T1, FcγRIIb extracellular domain with C-terminal His tag (human, UniProt P31994 43-217); experiment: SPR (Biacore), captured antibody, FcγR as analyte; relative binding
T1 construct: extracellular domain; expressed in FreeStyle293 cells; analyte in Biacore; also called FcgRIIb; 2b
T1 sequence (looked up): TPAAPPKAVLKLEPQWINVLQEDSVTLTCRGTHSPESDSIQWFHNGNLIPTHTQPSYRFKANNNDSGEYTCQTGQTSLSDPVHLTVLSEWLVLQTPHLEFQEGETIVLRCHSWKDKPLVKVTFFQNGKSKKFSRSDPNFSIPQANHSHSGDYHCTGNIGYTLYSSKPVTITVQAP

[2] = biological target: T2, FcγRIa extracellular domain with C-terminal His tag (human, UniProt P12314 16-292); experiment: as above
T2 construct: extracellular domain; expressed in FreeStyle293 cells; analyte in Biacore; also called FcgRI; 1a
T2 sequence (P12314 16-292): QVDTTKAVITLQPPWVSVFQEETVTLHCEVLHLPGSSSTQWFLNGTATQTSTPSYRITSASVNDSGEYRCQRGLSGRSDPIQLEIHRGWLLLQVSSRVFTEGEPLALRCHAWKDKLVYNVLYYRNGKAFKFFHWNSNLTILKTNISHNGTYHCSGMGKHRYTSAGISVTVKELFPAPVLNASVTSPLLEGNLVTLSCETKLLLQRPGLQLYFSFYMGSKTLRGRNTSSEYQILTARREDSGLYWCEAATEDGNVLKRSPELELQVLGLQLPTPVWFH

B1: GpH7-A5/GpH7-B3 variant Y296_03V/GpL16-k0 (antibody, human IgG1, kappa)
heavy 1: not shown
heavy 2: not shown
light: DIVMTQSPLSLPVTPGEPASISCQASESLVHSNRNTYLHWYLQKPGQSPQLLIYKVSNRFSGVPDRFSGSGSGTDFTLKISRVEAEDVGVYYCSQNTHVPPTFGQGTKVEIERTVAAPSVFIFPPSDEQLKSGTASVVCLLNNFYPREAKVQWKVDNALQSGNSQESVTEQDSKDSTYSLSSTLTLSKADYEKHKVYACEVTHQGLSSPVTKSFNRGEC
notes: He Ab; IgG1, mutation in one H chain
He/Con_2b [1]: 79.3 % of HeCon Ab (GpH7-A5/GpH7-B3/GpL16-k0 = 100)
He/Con_1a [2]: 104 % of HeCon Ab (GpH7-A5/GpH7-B3/GpL16-k0 = 100)

B2: GpH7-A5/GpH7-B3 variant S324_02A/GpL16-k0 (antibody, human IgG1, kappa)
heavy 1: not shown
heavy 2: not shown
light: DIVMTQSPLSLPVTPGEPASISCQASESLVHSNRNTYLHWYLQKPGQSPQLLIYKVSNRFSGVPDRFSGSGSGTDFTLKISRVEAEDVGVYYCSQNTHVPPTFGQGTKVEIERTVAAPSVFIFPPSDEQLKSGTASVVCLLNNFYPREAKVQWKVDNALQSGNSQESVTEQDSKDSTYSLSSTLTLSKADYEKHKVYACEVTHQGLSSPVTKSFNRGEC
notes: as for B1
He/Con_2b [1]: 78.3 % of HeCon Ab (GpH7-A5/GpH7-B3/GpL16-k0 = 100)
He/Con_1a [2]: 103 % of HeCon Ab (GpH7-A5/GpH7-B3/GpL16-k0 = 100)

B3: GpH7-A5/GpH7-B3 variant S298_19Q/GpL16-k0 (antibody, human IgG1, kappa)
heavy 1: not shown
heavy 2: not shown
light: DIVMTQSPLSLPVTPGEPASISCQASESLVHSNRNTYLHWYLQKPGQSPQLLIYKVSNRFSGVPDRFSGSGSGTDFTLKISRVEAEDVGVYYCSQNTHVPPTFGQGTKVEIERTVAAPSVFIFPPSDEQLKSGTASVVCLLNNFYPREAKVQWKVDNALQSGNSQESVTEQDSKDSTYSLSSTLTLSKADYEKHKVYACEVTHQGLSSPVTKSFNRGEC
notes: as for B1
He/Con_2b [1]: 73.3 % of HeCon Ab (GpH7-A5/GpH7-B3/GpL16-k0 = 100)
He/Con_1a [2]: 109 % of HeCon Ab (GpH7-A5/GpH7-B3/GpL16-k0 = 100)

B4: GpH7-A5/GpH7-B3 variant S298_18N/GpL16-k0 (antibody, human IgG1, kappa)
heavy 1: not shown
heavy 2: not shown
light: DIVMTQSPLSLPVTPGEPASISCQASESLVHSNRNTYLHWYLQKPGQSPQLLIYKVSNRFSGVPDRFSGSGSGTDFTLKISRVEAEDVGVYYCSQNTHVPPTFGQGTKVEIERTVAAPSVFIFPPSDEQLKSGTASVVCLLNNFYPREAKVQWKVDNALQSGNSQESVTEQDSKDSTYSLSSTLTLSKADYEKHKVYACEVTHQGLSSPVTKSFNRGEC
notes: as for B1
He/Con_2b [1]: 48.1 % of HeCon Ab (GpH7-A5/GpH7-B3/GpL16-k0 = 100)
He/Con_1a [2]: 108 % of HeCon Ab (GpH7-A5/GpH7-B3/GpL16-k0 = 100)

B5: GpH7-A5/GpH7-B3 variant Y296_14T/GpL16-k0 (antibody, human IgG1, kappa)
heavy 1: not shown
heavy 2: not shown
light: DIVMTQSPLSLPVTPGEPASISCQASESLVHSNRNTYLHWYLQKPGQSPQLLIYKVSNRFSGVPDRFSGSGSGTDFTLKISRVEAEDVGVYYCSQNTHVPPTFGQGTKVEIERTVAAPSVFIFPPSDEQLKSGTASVVCLLNNFYPREAKVQWKVDNALQSGNSQESVTEQDSKDSTYSLSSTLTLSKADYEKHKVYACEVTHQGLSSPVTKSFNRGEC
notes: as for B1
He/Con_2b [1]: 88.2 % of HeCon Ab (GpH7-A5/GpH7-B3/GpL16-k0 = 100)
He/Con_1a [2]: 105 % of HeCon Ab (GpH7-A5/GpH7-B3/GpL16-k0 = 100)

B6: GpH7-A5/GpH7-B3 variant Y296_13S/GpL16-k0 (antibody, human IgG1, kappa)
heavy 1: not shown
heavy 2: not shown
light: DIVMTQSPLSLPVTPGEPASISCQASESLVHSNRNTYLHWYLQKPGQSPQLLIYKVSNRFSGVPDRFSGSGSGTDFTLKISRVEAEDVGVYYCSQNTHVPPTFGQGTKVEIERTVAAPSVFIFPPSDEQLKSGTASVVCLLNNFYPREAKVQWKVDNALQSGNSQESVTEQDSKDSTYSLSSTLTLSKADYEKHKVYACEVTHQGLSSPVTKSFNRGEC
notes: as for B1
He/Con_2b [1]: 86.3 % of HeCon Ab (GpH7-A5/GpH7-B3/GpL16-k0 = 100)
He/Con_1a [2]: 105 % of HeCon Ab (GpH7-A5/GpH7-B3/GpL16-k0 = 100)

B7: GpH7-A5/GpH7-B3 variant S298_20W/GpL16-k0 (antibody, human IgG1, kappa)
heavy 1: not shown
heavy 2: not shown
light: DIVMTQSPLSLPVTPGEPASISCQASESLVHSNRNTYLHWYLQKPGQSPQLLIYKVSNRFSGVPDRFSGSGSGTDFTLKISRVEAEDVGVYYCSQNTHVPPTFGQGTKVEIERTVAAPSVFIFPPSDEQLKSGTASVVCLLNNFYPREAKVQWKVDNALQSGNSQESVTEQDSKDSTYSLSSTLTLSKADYEKHKVYACEVTHQGLSSPVTKSFNRGEC
notes: as for B1
He/Con_2b [1]: 41.1 % of HeCon Ab (GpH7-A5/GpH7-B3/GpL16-k0 = 100)
He/Con_1a [2]: 104 % of HeCon Ab (GpH7-A5/GpH7-B3/GpL16-k0 = 100)

B8: GpH7-A5/GpH7-B3 variant Y296_01G/GpL16-k0 (antibody, human IgG1, kappa)
heavy 1: not shown
heavy 2: not shown
light: DIVMTQSPLSLPVTPGEPASISCQASESLVHSNRNTYLHWYLQKPGQSPQLLIYKVSNRFSGVPDRFSGSGSGTDFTLKISRVEAEDVGVYYCSQNTHVPPTFGQGTKVEIERTVAAPSVFIFPPSDEQLKSGTASVVCLLNNFYPREAKVQWKVDNALQSGNSQESVTEQDSKDSTYSLSSTLTLSKADYEKHKVYACEVTHQGLSSPVTKSFNRGEC
notes: as for B1
He/Con_2b [1]: 79.3 % of HeCon Ab (GpH7-A5/GpH7-B3/GpL16-k0 = 100)
He/Con_1a [2]: 103 % of HeCon Ab (GpH7-A5/GpH7-B3/GpL16-k0 = 100)

B9: GpH7-A5/GpH7-B3 variant S324_03V/GpL16-k0 (antibody, human IgG1, kappa)
heavy 1: not shown
heavy 2: not shown
light: DIVMTQSPLSLPVTPGEPASISCQASESLVHSNRNTYLHWYLQKPGQSPQLLIYKVSNRFSGVPDRFSGSGSGTDFTLKISRVEAEDVGVYYCSQNTHVPPTFGQGTKVEIERTVAAPSVFIFPPSDEQLKSGTASVVCLLNNFYPREAKVQWKVDNALQSGNSQESVTEQDSKDSTYSLSSTLTLSKADYEKHKVYACEVTHQGLSSPVTKSFNRGEC
notes: as for B1
He/Con_2b [1]: 97.8 % of HeCon Ab (GpH7-A5/GpH7-B3/GpL16-k0 = 100)
He/Con_1a [2]: 104 % of HeCon Ab (GpH7-A5/GpH7-B3/GpL16-k0 = 100)

B10: GpH7-A5/GpH7-B3 variant Y296_06M/GpL16-k0 (antibody, human IgG1, kappa)
heavy 1: not shown
heavy 2: not shown
light: DIVMTQSPLSLPVTPGEPASISCQASESLVHSNRNTYLHWYLQKPGQSPQLLIYKVSNRFSGVPDRFSGSGSGTDFTLKISRVEAEDVGVYYCSQNTHVPPTFGQGTKVEIERTVAAPSVFIFPPSDEQLKSGTASVVCLLNNFYPREAKVQWKVDNALQSGNSQESVTEQDSKDSTYSLSSTLTLSKADYEKHKVYACEVTHQGLSSPVTKSFNRGEC
notes: as for B1
He/Con_2b [1]: 87.8 % of HeCon Ab (GpH7-A5/GpH7-B3/GpL16-k0 = 100)
He/Con_1a [2]: 104 % of HeCon Ab (GpH7-A5/GpH7-B3/GpL16-k0 = 100)
